Drawing on patent US12404493B2, “Methods for the re-derivation of diverse pluripotent stem cell-derived brown fat cells” (AgeX Therapeutics, Inc., priority 2015, dated 2025), this text covers cell viability for 2 molecules.

For this experiment, the system named is hES cell-derived clonal embryonic progenitor cell lines. The experiment is described as follows: Differentiation of clonal embryonic progenitor cell lines into BAT cells in HyStem beads, marker expression by Illumina microarray / qPCR. The class given is cell-based, human. The settings on record: 10 ng/mL BMP4 or 100 ng/mL BMP7 added to rosiglitazone/T3/CL-316,243 differentiation in HyStem beads. The procedure: Then, HyStem (1 ml, 1% w/v) is mixed with Gelin-S (1 ml, 1% w/v) immediately before use. […] Following complete gelation (20 min), Differentiation Medium is added to each well. […] Plates were then placed in a humidified incubator at 37° C. with ambient O2 and 10% CO2, and the cells were fed three-times weekly.
Total RNA was extracted directly from cells growing in 6-well plates or 10 cm tissue culture dishes using Qiagen RNeasy mini kits according to the manufacturer's instructions. RNA concentrations were measured using a Beckman DU530 or Nanodrop spectrophotometer and RNA quality was determined by denaturing agarose gel electrophoresis or using an Agilent 2100 bioanalyzer. […] Values of less than 120 relative fluorescence units (RFUs) were considered as nonspecific background signal.
(In general: Quantitative PCR measures a nucleic acid by following its amplification.)

B1: BMP4: Bone Morphogenetic Protein 4, member of the TGFβ superfamily (protein, UniProt P12644 293-408, looked up)
Bone morphogenetic protein 4: SPKHHSQRARKKNKNCRRHSLYVDFSDVGWNDWIVAPPGYQAFYCHGDCPFPLADHLNSTNHAIVQTLVNSVNSSIPKACCVPTELSAISMLYLDEYDKVVLKNYQEMVVEGCGCR
B1: the cell viability entry is “greater levels of cell viability”.

B2: BMP7: Bone Morphogenetic Protein 7, member of the TGFβ superfamily (protein, UniProt P18075 293-431, looked up)
Bone morphogenetic protein 7: STGSKQRSQNRSKTPKNQEALRMANVAENSSSDQRQACKKHELYVSFRDLGWQDWIIAPEGYAAYYCEGECAFPLNSYMNATNHAIVQTLVHFINPETVPKPCCAPTQLNAISVLYFDDSSNVILKKYRNMVVRACGCH
Consider B2, for which the cell viability result is “greater levels of cell viability”.
